Results: publication PMC9579051

Biological target: PSI–LHCI as found in the chloroplast PSI–LHCI dimer (one monomer unit, without PsaH, PsaO and Lhca2) (Chlamydomonas reinhardtii) (UniProt P12154)
Experiment: cryo-EM structure; heavier green band of the sucrose gradient of affinity-purified PSI cross-linked with activated Pc; 1 mg chlorophyll/ml, vitrified at 4 °C; dimer refined with C2 symmetry, monomer with C1, focused classification on the Pc region

stoichiometry N: 2
Substance: PSI–LHCI as found in the chloroplast PSI–LHCI dimer (one monomer unit, without PsaH, PsaO and Lhca2) (from UniProt P12154 1-751; P09144 1-735; Q39615 36-196; P12352 25-97; P12356 63-227; P14224 31-126; P14225 27-113) (complex)
